# Measurements reported in the supplement of paper PMC9732359.
# ± gives the uncertainty stated by the source.
# Test: protein stability index of a GFP-peptide fusion (yeast GPS) (PSI 1-4); higher = more stable; sorted into four equal gates, so the index is relative within each strain
# Conditions: doa10∆
# Summary of the method: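 Plasmids in a pooled yeast library fused tiled 17-residue yeast protein peptides downstream of GFP and also expressed Cherry. Mid-log cultures grown without leucine were sorted into four equal gates by GFP/Cherry fluorescence ratio. Each gate's plasmids were PCR-amplified and Illumina-sequenced, and reads were matched to strains by barcodes. The protein stability index is derived by multiplying each gate's read frequency by its gate number and summing the results.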
row,Sequence,protein stability index
1,LVSLFEDTNLAAIHAKR [HHT1],2.9 ± 0.17
2,LVSSGDRFIELISDQLL [YML103C/NUP188],2.76 ± 0.099
3,LVTPKSFLFDVLKTLEY [NUT1],2.91 ± 0.18
4,LVTQHKAKYNTPKYRLV [RPL5],1.43 ± 0.052
5,LWDSKELEQLVEFNRKV [RPN3],2.97 ± 0.1
6,LWNQWLKLNTSLPSKLT [SRP68],1.45 ± 0.049
7,LWVFQAFTCFCIKKIME [SRB8],1.69 ± 0.044
8,LYDALEPSDLRSWTLTS [YGL100W/SEH1],2.82 ± 0.048
9,LYNDADVLTLENIQEGT [CDC53],3.18 ± 0.1
10,LYNKIWTEASSSGAGTV [ECM29],2.12 ± 0.065
11,LYPIFLLDDKKLMDEDS [YJR042W/NUP85],2.01 ± 0.09
12,LYQSKGRYMEALALYVD [SRP68],1.86 ± 0.076
13,LYTLAQETEGTNRHTLA [SIR3],2.73 ± 0.077
14,LYVDSESTSSTEEVEAL [MTW1],2.92 ± 0.11
15,LYVLPSFNIPRLTFKPW [YMR129W/POM152],2.2 ± 0.12
16,LYYRPHINKKSQLDLFL [GRR1],1.78 ± 0.071
17,MAESHRLYVKGKHLSYQ [RPL33A],2.71 ± 0.077
18,MAFQKDAKSSAYSSRFQ [RPL5],2.67 ± 0.11
19,MAFRKSNVYLSLVNSYI [COB],2 ± 0.049
20,MALNKVLITDHIEKLEN [CDC53],2.52 ± 0.053
21,MAPLSLNFKDDKKYKGL [REC8],2.66 ± 0.089
22,MATLEELDAQTLPGDDE [RPT5],3.31 ± 0.12
23,MCEQALSALFTISSKPD [YCS4],2.22 ± 0.038
24,MCQNPMQKPVPFVPVLD [FAS1],1.47 ± 0.039
25,MDFGVDPSMDPELAMAL [RPN10],2.88 ± 0.077
26,MDHEEARRKHVSGKILG [RPS22A],2.83 ± 0.28

row,Sequence,protein stability index
1,MDIAERIAVLHQKTKTL [YGL172W/NUP49],2.14 ± 0.076
2,MDIMEDFLRYINIKYLR [SNF2],1.54 ± 0.039
3,MDSIIPAGVKLDDLQVI [PGD1],2.5 ± 0.093
4,MDVDQFDFLDDGTAQLS [YJR042W/NUP85],2.46 ± 0.079
5,MDVDSVKTTLVSLTQLR [RPC82],2.57 ± 0.1
6,MEIVANAKESNYTDLIW [MED1],3.27 ± 0.094
7,MEKLDAKLNHLKKLEKF [SWI3],2.81 ± 0.13
8,MFTYSQETQHGNITRGL [RPN2],3.28 ± 0.08
9,MGKSAVIFVERATPATL [SRB2],2.36 ± 0.14
10,MGRVRTKTVKRASKALI [RPS17A],3.05 ± 0.12
11,MGSRRYDSRTTIFSPEG [PRE9],3.36 ± 0.2
12,MIISGSRDKTIKVWTIK [ASC1],2.48 ± 0.084
13,MILNYNPSQGVSNSGAQ [UBP6],3.25 ± 0.096
14,MKAVGEYMKRHPTTIES [SEC65],1.93 ± 0.17
15,MKQYRDFLGVASTGSGK [PRP28],2.77 ± 0.1
16,MKTKTINAQGEEIVVVA [PRP8],1.72 ± 0.089
17,MKVFVTKHLMPQDLTFN [RPB7],2.96 ± 0.062
18,MLKQHLFKYQGHIGAYL [PUP1],2.17 ± 0.064
19,MMCDFGTGNNNKLNFIV [DIB1],1.13 ± 0.084
20,MNIIQQQQQQNTNNNDT [GAL11],2.43 ± 0.042
21,MNRPGARVTRRKRCKGT [RPL11A],3.05 ± 0.21
22,MPPKFDPNEVKYLYLRA [RPL12A],2 ± 0.093
23,MQENDKINQERLERRIN [CSI1],1.62 ± 0.065
24,MQFAKSKTVKVLKTLIE [RPN6],1.24 ± 0.071
25,MQHNPLAGKRGPKSGST [PGD1],2.94 ± 0.064
26,MQVYLVPIERVAQLKPF [RPC37],1.9 ± 0.079

row,Sequence,protein stability index
1,MREITETIAEAKKKVLD [RPO21],3.5 ± 0.13
2,MSGRGKGGKGLGKGGAK [HHF1],3.69 ± 0.29
3,MSIVFGDKFSEDFRIQF [UBP6],3.28 ± 0.13
4,MSLQHEKVTIAPLVLLS [RPN8],1.19 ± 0.035
5,MSSDASTYRLEDVLSSF [SSN2],2.21 ± 0.073
6,MSVERGIRWELISRLCP [RPT1],1.73 ± 0.052
7,MTNLTYFLHLSVFNAEL [YCS4],1.62 ± 0.061
8,MTVTKVSLPEGSFKRVK [BRR2],2.92 ± 0.13
9,MTYKNKLTVCFDDILKV [MED2],2.13 ± 0.048
10,MVATVKRTIRIKTQQHI [TAF14],1.62 ± 0.09
11,MVAYSPIIATYGNRAEQ [SRP68],2.18 ± 0.085
12,MVEWLESRSFSPIPFPP [PRP8],2.52 ± 0.13
13,MVHREFLKLANGGKFSK [RGR1],3.22 ± 0.08
14,MVLVQDLLHPTAASEAR [RPS27A],2.45 ± 0.19
15,MVMFMHMAKGLYYGSYR [COB],1.18 ± 0.086
16,MYGLTMEWPKDMLKYKE [ITC1],3.53 ± 0.17
17,NAANVPVENIWADIFAK [RPP1A],2.2 ± 0.083
18,NAARKAEASGEAADEAD [RPS9A],3.29 ± 0.24
19,NAIFQMESEEVPLTKRY [PCI8],2.81 ± 0.05
20,NAISLQLKYDTSVQEKE [YIL149C/MLP2],2.61 ± 0.13
21,NAISNTQDDFTTSVDVM [SRP54],2.79 ± 0.076
22,NAKKRVFKTHSYRGVDL [RPS15],2.93 ± 0.053
23,NALHTERLHELKKLQSD [SMC1],3.59 ± 0.078
24,NALYDTLLESNLCKIIE [RPN6],2.07 ± 0.068
25,NANEISANTNNTCTIST [SWP82],2.61 ± 0.041
26,NANQQFLPFNNSASNNG [SWI1],3 ± 0.052

row,Sequence,protein stability index
1,NANTGFSFGGTQTGQNT [YGL172W/NUP49],3.42 ± 0.14
2,NAQDIDHFLSMCQNPMQ [FAS1],3.51 ± 0.23
3,NARMPGMPNMPGMPNMP [SRP54],3.34 ± 0.11
4,NASANSTSFSFNAPATG [YOR098C/NUP1],2.99 ± 0.049
5,NASGNKRSGVIETVDDK [ITC1],2.55 ± 0.09
6,NASQMGNTGSGGYDNAW [RPB3],3.36 ± 0.28
7,NATANATANATANATAE [SNF11],3.15 ± 0.04
8,NCIRILADKLENYEGKQ [YIL149C/MLP2],3 ± 0.3
9,NDANITSNKEGFNSIWK [SSN2],3.17 ± 0.077
10,NDDELNKLLGNVTIAQG [HTA1],3.31 ± 0.12
11,NDEKRVKEEYDIWQSRD [YIL149C/MLP2],3.22 ± 0.062
12,NDELVELLANKCPLLVE [GRR1],2.08 ± 0.058
13,NDIDDLDMELAELDPSL [SEC65],3.34 ± 0.15
14,NDIFERIATEASKLAAY [HTB1],1.93 ± 0.23
15,NDIHLRFMRFLADRDEF [ECM29],2.44 ± 0.065
16,NDKLIVDNDNWVYKTKG [RPN1],2.81 ± 0.14
17,NDLRVSLNEKNALHTER [SMC1],3.11 ± 0.11
18,NDNEGKHISASIDNDFS [YAR002W/NUP60],3.05 ± 0.089
19,NDPAREKFSSFIESIVV [SNF12],2.78 ± 0.056
20,NDPNAAVNMTQNIMTLP [MED6],2.97 ± 0.14
21,NDVTNKNINIGKHSQEQ [SIR4],2.26 ± 0.052
22,NECIASTSNALKVLSGD [SNF12],2.89 ± 0.059
23,NEDARAIFNNEFDSDDD [RPN4],3.09 ± 0.075
24,NEEGDWSCIVVENWIID [ITC1],2.38 ± 0.074
